In patent US20230407373A1 (priority 2020, published 2023):
Where two headings read alike, the source gives them in different places.

How the values were obtained:
SARS-CoV-2 gRNA = assay type: binding; details: for target (unweighted spectral count of the protein in the RNP capture): LC-MS/MS, Probe I sample (first 199 lines of Table 2)
HCoV-OC43 gRNA and sgRNA = assay type: binding; details: for target (unweighted spectral count, OC43 Probe II capture): FDR<10%

B1: FAM1204 (protein, UniProt Q9NZB2 1-1118, looked up)
Constitutive coactivator of …: MGVQGFQDYIEKHCPSAVVPVELQKLARGSLVGGGRQRPPQTPLRLLVDADNCLHRLYGGFYTDWVSGGQWNHMLGYLAALAKACFGGNIELFVFFNGALEKARLHEWVKRQGNERQTAQQIVSHVQNKGTPPPKVWFLPPVCMAHCIRLALIRFHVKVAQSIEDHHQEVIGFCRENGFHGLVAYDSDYALCNIPYYFSAHALKLSRNGKSLTTSQYLMHEVAKQLDLNPNRFPIFAALLGNHILPDEDLASFHWSLLGPEHPLASLKVRAHQLVLPPCDVVIKAVADYVRNIQDTSDLDAIAKDVFQHSQSRTDDKVIRFKRAIGYYSATSKPMSFHPPHYLAARPGPFGMPGMVPPHVPPQMLNIPQTSLQAKPVAPQVPSPGGAPGQGPYPYSLSEPAPLTLDTSGKNLTEQNSYSNIPHEGKHTPLYERSSPINPAQSGSPNHVDSAYFPGSSTSSSSDNDEGSGGATNHISGNKIGWEKTGSHSEPQARGDPGDQTKAEGSSTASSGSQLAEGKGSQMGTVQPIPCLLSMPTRNHMDITTPPLPPVAPEVLRVAEHRHKKGLMYPYIFHVLTKGEIKIAVSIEDEANKDLPPAALLYRPVRQYVYGVLFSLAESRKKTERLAFRKNRLPPEFSPVIIKEWAAYKGKSPQTPELVEALAFREWTCPNLKRLWLGKAVEDKNRRMRAFLACMRSDTPAMLNPANVPTHLMVLCCVLRYMVQWPGARILRRQELDAFLAQALSPKLYEPDQLQELKIENLDPRGIQLSALFMSGVDMALFANDACGQPIPWEHCCPWMYFDGKLFQSKLLKASREKTPLIDLCDGQADQAAKVEKMRQSVLEGLSFSRQSHTLPFPPPPALPFYPASAYPRHFGPVPPSQGRGRGFAGVCGFGGPYGETVATGPYRAFRVAAASGHCGAFSGSDSSRTSKSQGGVQPIPSQGGKLEIAGTVVGHWAGSRRGRGGRGPFPLQVVSVGGPARGRPRGVISTPVIRTFGRGGRYYGRGYKNQAAIQGRPPYAASAEEVAKELKSKSGESKSSAMSSDGSLAENGVMAEEKPAPQMNGSTGDARAPSHSESALNNDSKTCNTNPHLNALSTDSACRREAALEAAVLNKEE
target (unweighted spectral count of the protein in the RNP capture) (SARS-CoV-2 gRNA; […]): 37

B2: SRSF9 (protein, UniProt Q13242 1-221, looked up)
Serine/arginine-rich splicing …: MSGWADERGGEGDGRIYVGNLPTDVREKDLEDLFYKYGRIREIELKNRHGLVPFAFVRFEDPRDAEDAIYGRNGYDYGQCRLRVEFPRTYGGRGGWPRGGRNGPPTRRSDFRVLVSGLPPSGSWQDLKDHMREAGDVCYADVQKDGVGMVEYLRKEDMEYALRKLDDTKFRSHEGETSYIRVYPERSTSYGYSRSRSGSRGRDSPYQSRGSPHYFSPFRPY
target (unweighted spectral count of the protein in the RNP capture) (SARS-CoV-2 gRNA; […]): 6

B3: MARS2 (protein, UniProt Q96GW9 30-593, looked up)
Methionine--tRNA ligase, …: SSGSLSAGDDACDVRAYFTTPIFYVNAAPHIGHLYSALLADALCRHRRLRGPSTAATRFSTGTDEHGLKIQQAAATAGLAPTELCDRVSEQFQQLFQEAGISCTDFIRTTEARHRVAVQHFWGVLKSRGLLYKGVYEGWYCASDECFLPEAKVTQQPGPSGDSFPVSLESGHPVSWTKEENYIFRLSQFRKPLQRWLRGNPQAITPEPFHHVVLQWLDEELPDLSVSRRSSHLHWGIPVPGDDSQTIYVWLDALVNYLTVIGYPNAEFKSWWPATSHIIGKDILKFHAIYWPAFLLGAGMSPPQRICVHSHWTVCGQKMSKSLGNVVDPRTCLNRYTVDGFRYFLLRQGVPNWDCDYYDEKVVKLLNSELADALGGLLNRCTAKRINPSETYPAFCTTCFPSEPGLVGPSVRAQAEDYALVSAVATLPKQVADHYDNFRIYKALEAVSSCVRQTNGFVQRHAPWKLNWESPVDAPWLGTVLHVALECLRVFGTLLQPVTPSLADKLLSRLGVSASERSLGELYFLPRFYGHPCPFEGRRLGPETGLLFPRLDQSRTWLVKAHRT
target (unweighted spectral count of the protein in the RNP capture) (SARS-CoV-2 gRNA; […]): 6

B4: DHX30 (protein, UniProt Q7L2E3 1-1194, looked up)
ATP-dependent RNA helicase …: MFSLDSFRKDRAQHRQRQCKLPPPRLPPMCVNPTPGGTISRASRDLLKEFPQPKNLLNSVIGRALGISHAKDKLVYVHTNGPKKKKVTLHIKWPKSVEVEGYGSKKIDAERQAAAAACQLFKGWGLLGPRNELFDAAKYRVLADRFGSPADSWWRPEPTMPPTSWRQLNPESIRPGGPGGLSRSLGREEEEDEEEELEEGTIDVTDFLSMTQQDSHAPLRDSRGSSFEMTDDDSAIRALTQFPLPKNLLAKVIQIATSSSTAKNLMQFHTVGTKTKLSTLTLLWPCPMTFVAKGRRKAEAENKAAALACKKLKSLGLVDRNNEPLTHAMYNLASLRELGETQRRPCTIQVPEPILRKIETFLNHYPVESSWIAPELRLQSDDILPLGKDSGPLSDPITGKPYVPLLEAEEVRLSQSLLELWRRRGPVWQEAPQLPVDPHRDTILNAIEQHPVVVISGDTGCGKTTRIPQLLLERYVTEGRGARCNVIITQPRRISAVSVAQRVSHELGPSLRRNVGFQVRLESKPPSRGGALLFCTVGILLRKLQSNPSLEGVSHVIVDEVHERDVNTDFLLILLKGLQRLNPALRLVLMSATGDNERFSRYFGGCPVIKVPGFMYPVKEHYLEDILAKLGKHQYLHRHRHHESEDECALDLDLVTDLVLHIDARGEPGGILCFLPGWQEIKGVQQRLQEALGMHESKYLILPVHSNIPMMDQKAIFQQPPVGVRKIVLATNIAETSITINDIVHVVDSGLHKEERYDLKTKVSCLETVWVSRANVIQRRGRAGRCQSGFAYHLFPRSRLEKMVPFQVPEILRTPLENLVLQAKIHMPEKTAVEFLSKAVDSPNIKAVDEAVILLQEIGVLDQREYLTTLGQRLAHISTDPRLAKAIVLAAIFRCLHPLLVVVSCLTRDPFSSSLQNRAEVDKVKALLSHDSGSDHLAFVRAVAGWEEVLRWQDRSSRENYLEENLLYAPSLRFIHGLIKQFSENIYEAFLVGKPSDCTLASAQCNEYSEEEELVKGVLMAGLYPNLIQVRQGKVTRQGKFKPNSVTYRTKSGNILLHKSTINREATRLRSRWLTYFMAVKSNGSVFVRDSSQVHPLAVLLLTDGDVHIRDDGRRATISLSDSDLLRLEGDSRTVRLLKELRRALGRMVERSLRSELAALPPSVQEEHGQLLALLAELLRGPCGSFDVRKTADD
target (unweighted spectral count of the protein in the RNP capture) (SARS-CoV-2 gRNA; […]): 13

B5: CON_P35908 (protein, UniProt P35908 1-639, looked up)
Keratin, type II cytoskeletal …: MSCQISCKSRGRGGGGGGFRGFSSGSAVVSGGSRRSTSSFSCLSRHGGGGGGFGGGGFGSRSLVGLGGTKSISISVAGGGGGFGAAGGFGGRGGGFGGGSSFGGGSGFSGGGFGGGGFGGGRFGGFGGPGGVGGLGGPGGFGPGGYPGGIHEVSVNQSLLQPLNVKVDPEIQNVKAQEREQIKTLNNKFASFIDKVRFLEQQNQVLQTKWELLQQMNVGTRPINLEPIFQGYIDSLKRYLDGLTAERTSQNSELNNMQDLVEDYKKKYEDEINKRTAAENDFVTLKKDVDNAYMIKVELQSKVDLLNQEIEFLKVLYDAEISQIHQSVTDTNVILSMDNSRNLDLDSIIAEVKAQYEEIAQRSKEEAEALYHSKYEELQVTVGRHGDSLKEIKIEISELNRVIQRLQGEIAHVKKQCKNVQDAIADAEQRGEHALKDARNKLNDLEEALQQAKEDLARLLRDYQELMNVKLALDVEIATYRKLLEGEECRMSGDLSSNVTVSVTSSTISSNVASKAAFGGSGGRGSSSGGGYSSGSSSYGSGGRQSGSRGGSGGGGSISGGGYGSGGGSGGRYGSGGGSKGGSISGGGYGSGGGKHSSGGGSRGGSSSGGGYGSGGGGSSSVKGSSGEAFGSSVTFSFR
target (unweighted spectral count of the protein in the RNP capture) (SARS-CoV-2 gRNA; […]): 6 | target (unweighted spectral count, OC43 Probe II capture) (HCoV-OC43 gRNA and sgRNA; 24 hpi, type n_24_v, tested against no-probe control): 4

B6: RPUSD3 (protein, UniProt Q6P087 26-351, looked up)
Mitochondrial mRNA …: LGVRPVPEDAGFGTEARHQRQPRGSCQRSGPLGDQPFAGLLPKNLSREELVDALRAAVVDRKGPLVTLNKPQGLPVTGKPGELTLFSVLPELSQSLGLREQELQVVRASGKESSGLVLLSSCPQTASRLQKYFTHARRAQRPTATYCAVTDGIPAASEGKIQAALKLEHIDGVNLTVPVKAPSRKDILEGVKKTLSHFRVVATGSGCALVQLQPLTVFSSQLQVHMVLQLCPVLGDHMYSARVGTVLGQRFLLPAENNKPQRQVLDEALLRRLHLTPSQAAQLPLHLHLHRLLLPGTRARDTPVELLAPLPPYFSRTLQCLGLRLQ
target (unweighted spectral count of the protein in the RNP capture) (SARS-CoV-2 gRNA; […]): 7

B7: CKAP4: host protein, UniProt Q07065 (protein, UniProt Q07065 1-602, looked up)
Cytoskeleton-associated …: MPSAKQRGSKGGHGAASPSEKGAHPSGGADDVAKKPPPAPQQPPPPPAPHPQQHPQQHPQNQAHGKGGHRGGGGGGGKSSSSSSASAAAAAAAASSSASCSRRLGRALNFLFYLALVAAAAFSGWCVHHVLEEVQQVRRSHQDFSRQREELGQGLQGVEQKVQSLQATFGTFESILRSSQHKQDLTEKAVKQGESEVSRISEVLQKLQNEILKDLSDGIHVVKDARERDFTSLENTVEERLTELTKSINDNIAIFTEVQKRSQKEINDMKAKVASLEESEGNKQDLKALKEAVKEIQTSAKSREWDMEALRSTLQTMESDIYTEVRELVSLKQEQQAFKEAADTERLALQALTEKLLRSEESVSRLPEEIRRLEEELRQLKSDSHGPKEDGGFRHSEAFEALQQKSQGLDSRLQHVEDGVLSMQVASARQTESLESLLSKSQEHEQRLAALQGRLEGLGSSEADQDGLASTVRSLGETQLVLYGDVEELKRSVGELPSTVESLQKVQEQVHTLLSQDQAQAARLPPQDFLDRLSSLDNLKASVSQVEADLKMLRTAVDSLVAYSVKIETNENNLESAKGLLDDLRNDLDRLFVKVEKIHEKV
target (unweighted spectral count in RNP capture) (SARS-CoV-2 gRNA; Probe I capture, […], LC-MS/MS LFQ): 5 | background (unweighted spectral count in control) (SARS-CoV-2 gRNA; no-probe control pull-down, used as background for Probe I): 1 | target (unweighted spectral count, OC43 Probe II capture) (HCoV-OC43 gRNA and sgRNA; 36 hpi, type n_36_v, tested against no-probe control): 12 | target (unweighted spectral count) (HCoV-OC43 gRNA and sgRNA; OC43 Probe II, 24 hpi (type n_24_v), infected cells, tested against no-probe control): 8 | target (spectral count) (HCoV-OC43 gRNA and sgRNA; type s_36_m, HCoV-OC43-infected HCT-8 cells, 36 hpi, Probe II): 12 | background (spectral count) (HCoV-OC43 gRNA and sgRNA; type s_36_m, uninfected-probe control, 36 hpi, Probe II): 1
